Assay results reported in US7790682B1, “Engineered human acidic fibroblast growth factors and associated methods” (The Florida State University Research Foundation, Inc., priority 2003, dated 2010).
Entries after “also recorded” stand apart in the source; their conditions may differ.

B1: SYM6: FGF-1 core mutant Leu44→Phe/Met67→Ile/Leu73→Val/Val109→Leu/Leu111→Ile/Cys117→Val (protein, UniProt P05230 16-155, looked up, variant L44F M67I L73V V109L L111I C117V)
Fibroblast growth factor 1: FNLPPGNYKKPKLLYCSNGGHFLRILPDGTVDGTRDRSDQHIQFQLSAESVGEVYIKSTETGQYLAIDTDGLVYGSQTPNEECLFLERLEENHYNTYISKKHAEKNWFLGIKKNGSVKRGPRTHYGQKAILFLPLPVSSD
B2: WTΔ120-122: Wild type FGF-1 polypeptide with a deletion at positions 120-122, SEQ ID NO: 3 (protein)
chain: FNLPPGNYKKPKLLYCSNGGHFLRILPDGTVDGTRDRSDQHIQLQLSAESVGEVYIKSTETGQYLAMDTDGLLYGSQTPNEECLFLERLEENHYNTYISKKHAEKNWFVGLKKNGSCKGTHYGQKAILFLPLPVSSD
modifications: Human FGF-1 mutant WTD120-122

Assays:
[1] = Isothermal equilibrium denaturation in guanidine HCl monitored by CD; type: physicochemical; settings: relative to SYM6ΔΔ
Procedure: Protein samples were equilibrated overnight in 20 mM N-2-(acetamido)iminodiacetic acid (ADA), 100 mM NaCl pH 6.60 at 298K in 0.1M increments of guanidine HCl (GuHCl). All samples contained a final protein concentration of 25 μM. An Aviv model 202 circular dichroism spectrometer (Proterion Corp., Piscataway, N.J.) equipped with a Peltier controlled temperature unit maintaining a constant temperature of 298K was used for all spectroscopic measurements. For each sample, triplicate scans were collected and averaged. Buffer traces were collected, averaged and subtracted from the sample traces. Data smoothing was performed prior to buffer subtraction using a 5-point Fourier transform filter. The denaturation process was monitored by observing the change in CD signal at 227 nm with increasing GuHCl, according to published references. The general purpose non-linear least squares fitting program DataFit™ (Oakdale Engineering, Oakdale Pa.) was used to fit the change in molar ellipticity at 227 nm versus GuHCl concentration to a six parameter two state model: F=(F0N+SN[D]+F0D+SD[D])e^−((ΔG0+m[D]/RT)/1+e^−((ΔG0+m[D]/RT) (1) where [D] is the denaturant concentration, F0N and F0D are the 0M denaturant molar ellipticity intercepts for the native and denatured states, respectively, and SN and SD are the slopes of the native and denatured state baselines, respectively. ΔG0 and m describe the linear function of the unfolding free energy versus denaturant concentration at 298K. The effect of a given mutation upon the stability of the protein (ΔΔG) was calculated by taking the difference between the Cm values for WT* and mutant and multiplying by the average of the m values, as described by Pace and Scholtz (Measuring the conformational stability of a protein; in Protein Structure: A Practical Approach, Creighton, T. E., ed., pp. 299-321, Oxford University Press, Oxford; 1997): ΔΔG=(CmWT*−Cm mutant)(mWT*+mmutant)/2 (2) Folding Kinetics Measurements.
Previous studies by others of the stability and folding of FGF-1 have been performed by monitoring the fluorescence signal of the single buried Trp 107 in FGF-1. This Trp in the WT* structure is somewhat unusual in that it is more highly quenched in the native state than the denatured. […] We have previously compared the fluorescence and CD spectroscopic response of FGF-1 to denaturation by GuHCl and shown essentially indistinguishable results for both his-tagged and non-his-tagged forms. A tabulation of the mutant thermodynamic data from isothermal equilibrium denaturation, monitored by CD signal, is listed in Table II. The data in this table for the SYM6 mutant are from our previously published isothermal equilibrium denaturation study monitored by fluorescence.

[2] = Precipitation during purification or concentration; type: physicochemical
Procedure: All mutant proteins, with the exception of the SYM6 mutant were expressed at levels similar to the WT* protein (i.e. ˜30-100 mg/L). […] The His-tag provides the WT* and mutant FGF-1 proteins with nickel binding affinity, and FGF-1 naturally has a heparin binding site. These two affinity sites were employed in a purification scheme utilizing sequential nickel-NTA and heparin Sepharose® affinity chromatography resins. However, mutant forms of FGF-1 involving the Δ120-122 mutation lacked heparin-binding affinity. These mutants were, therefore, purified by the substitution of gel filtration chromatography for the heparin Sepharose® affinity chromatography. The extinction coefficients used for concentration determination were E280nm (0.1%, 1 cm)=1.26 for WT* and other mutations not involving deletions or the Leu44 ? […] Phe, and E280nm (0.1%, 1 cm)=1.31 for all deletion mutations (determined by dithionitrobenzoate titration of cysteine residues).
Due to the relatively weak differential CD signal of native and denatured FGF-1, the folding kinetics study required relatively high protein concentrations (>5 mg/ml). […] The SYM6Δ120-122 mutant is substantially destabilized relative to the WT* protein (see Table II) and presents a relatively short “folding arm” in the Chevron plot, for this reason there is greater uncertainty associated with the folding kinetics determined for this mutant. […]

[3] = monitored by fluorescence signal, cited from earlier work
[4] = tested on: NIH 3T3 fibroblasts; assay: Cell proliferation (mitogenic activity) assay; type: cell-based; settings: predicted from data on other Δ120-122 mutants
Procedure: NIH 3T3 fibroblasts were initially plated in Dulbecco's modified Eagle's medium (DMEM) (American Type Culture Collection, Manassas Va.) supplemented with 10% (v/v) newborn calf serum (NCS) (Sigma, St. Louis Mo.), 100 units of penicillin, 100 μg streptomycin, 0.25 μg Fungizone™ and 0.01 mg/ml gentamicin (Gibco, Carlsbad Calif.) (“serum-rich” medium) in T75 tissue culture flasks (Fisher, Pittsburgh Pa.). The cultures were incubated at 37° C. and all cell growth was performed with 5% CO2 supplementation. At approximately 80% cell confluence, the cells were washed with 5 ml cold 0.14M NaCl, 5.1 mM KCl, 0.7 mM Na2HPO4 and 24.8 mM Trizma® base, pH 7.4 (TBS) and subsequently treated with 5 ml of a 0.025% trypsin solution (Invitrogen Corp., Carlsbad Calif.). Cell synchronization was initiated by serum starvation in DMEM with 0.5% NCS, 100 units of penicillin, 100 μg streptomycin, 0.25 μg Fungizone™ and 0.01 mg/ml gentamicin (“starvation” medium). The cells were seeded in T25 tissue culture flasks (Fisher, Pittsburgh, Pa.) at a cell density of 3.0×10^4 cells/cm^2 (representing ˜20% confluence). Duplicate flasks were used for each protein concentration. Cultures were incubated for 48 hours at 37° C., the medium was then decanted and replaced with fresh medium supplemented with the appropriate concentration of FGF-1 polypeptide, and incubated for an additional 48 hours. After this incubation, the medium was decanted and the cells were washed with 1 ml cold TBS pH 7.4. 1 ml of 0.025% trypsin was then added to release the cells from the flask surface, and 2 ml of serum-rich medium were added to dilute and inhibit the trypsin. The cells were counted using a hemocytometer (Hausser Scientific Partnership, Horsham Pa.). Experiments were performed in quadruplicate and the cell densities were averaged. The relationship between the cell number and log concentration of added growth factor was fit to a sigmoidal function.
Mitogenic activity towards NIH 3T3 fibroblasts was determined for WT*, SYM5, SYM5Δ104-106, SYM5Δ120-122, and SYM6ΔΔ mutants. […] The NIH 3T3 fibroblast proliferative activity of WT* FGF-1 yielded an effective concentration for 50% maximal stimulation (EC50) of 60 ng/ml (FIG. 3).

[5] = Heparin Sepharose affinity chromatography / heparin-binding affinity; settings: predicted from data on other Δ120-122 mutants
From the text: All studies herein disclosed utilized a synthetic gene for the 140 amino acid form of human FGF-1 with the addition of an amino-terminal six residue “His-tag” to facilitate purification using nickel nitrilotriacetic acid (Ni-NTA) affinity resin (QIAGEN, Valencia Calif.). The QuikChange® site-directed mutagenesis protocol (Stratagene, La Jolla Calif.) was used to introduce mutations, individually or in combination, using mutagenic oligonucleotides of 25 to 31 bases in length (Biomolecular Analysis Synthesis and Sequencing Laboratory, Florida State University). For deletions involving residues 104-106 and 120-122, mutagenic oligonucleotides were used to delete these positions as well as to simultaneously create point mutations Ala103 ? Gly and Arg119 ? Gly, respectively. […]
All mutant proteins, with the exception of the SYM6 mutant were expressed at levels similar to the WT* protein (i.e. ˜30-100 mg/L). […] Phe, and E280nm (0.1%, 1 cm)=1.31 for all deletion mutations (determined by dithionitrobenzoate titration of cysteine residues).
To quantify the reduced affinity for heparin (a polysulfonated polysaccharide) we determined the affinity for sucrose octasulfate, a structural mimic of a heparin dimer, by isothermal titration calorimetry. […]

heparin binding affinity, predicted [5]	Molecule	effect on stability of the two loop insertions [1]	precipitation / solubility (in words) [2]	Cm ([3]; previously reported)	m-value ([3]; previously reported)	ΔG0 ([3]; previously reported)	ΔΔG ([3]; relative to WT*, previously reported data)	mitogenicity, predicted [4]
	B1	+25.3 kJ/mol	tendency to precipitate during purification; also recorded: typically precipitated during concentration	0.54 ± 0.01 M	19.3 ± 1.9 kJ/mol M	2.49 ± 0.19 kcal/mol	2.44 kcal/mol	
decreased heparin binding affinity	B2							increased biological activity with regard to mitogenicity
